Reference: the nanobody polyreactivity screen of Harvey et al. (2022)

Assay: yeast display, Sf9 membrane polyspecificity reagent, FACS + sequencing; frameworks hold sequencing errors
Summary of the method: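 Galactose-induced (36–48 hours) yeast carrying a synthetic nanobody display library were exposed to 10% biotinylated, detergent-solubilized Sf9 membrane reagent at 4 °C for 1 hour. FACS followed streptavidin microbead enrichment, using low and high (top ~1%) gates for expression (anti-HA) and reagent binding (streptavidin). Colony PCR, MiSeq 2 × 250 sequencing and CDR-length filtering followed. Labels for polyreactivity reflect the gate of origin.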

Row | Sequence | polyreactivity (PSR sort gate)
1 | QVQLVESGGGLVQAGGSLRLSCAASGITFYDYPMGWYRQAPGKERELVAAITSSGGRTYYADSVKGRFTISRDNAKNTVYLQMNSLKPEDTAVYYCAASTYPHEYDYWGQGTQVTVSS | low polyreactivity
2 | QVQLVESGGGLVQAGGSLRLSCAASGSIFVGYAMGWYRQAPGKERELVAAISWSGDSTYYADSVKGRFTISRDNAKNTVYLQMNSLTPEDTAVYYCAVDYAEIGPRPEVEYDYWGQGTQVTVSS | low polyreactivity
3 | QVQLVESGGGLVQAGGSLRLSCAATGRTFSEYVMGWYRQAPGKERELVAAISDRGTRTYYSDSVKGRFTISRDNAKNNVYLPMNSLKPEDTAVYYCYAGLTYNHDPYDYWGQGTQVTVSS | high polyreactivity
4 | QVQLVASGGGLVHAGGSLRLSCAASGGTFWDYAMGWSRQAPGKERELVAVISDSGGTYYADSVKGRFTISRDNAKNTVYLQMNSLKPEDTAVYYCAAGSLTLSTSTVWFAYDYWGQGTQVTVSS | high polyreactivity
5 | QVQLVESGGGLVQAGGSLRLSCAASGIIFYKYAMGWYRQAPGKERELVAAITSGGGRTYYADSVKGRFTISRDNPKNSVYLQMNSLKPEDTAVYYCAATRPATYAAYDYWGQGTQVTVSS | high polyreactivity
6 | QVQLVESGGGLVQAGGSLRLSCAASGSTFVSNVMGWYRQAPGKERELVAAITRGGSTKYADSVKGRFTISRDNAKNSVYLQMNSLKPEDTAVYYCAKRLYTRPGWYDYWGQGTQVTVSS | high polyreactivity
7 | HVQLVESGAGLVQAAGSLRLSCAASGRPLDSNAMGGYRQAPGKDRELVAAITYSGGSTYYADSVKGRFTISRDNAKNTVYLQMNSLKPEDTAVYYCAKVGRLYRVGGYDYWGQGTQVTVSS | low polyreactivity
8 | QVQLVESGGGLVQAGGSLRLSCAASGFTFDFYAMGWYRQAPGKDRELVAAISRSGGRTYYADSVKGRFTISRDNAKNTVYLQMNSLKPEDTAVYYCAAVDIIPVRMEYWGQGTQVTVSS | high polyreactivity
9 | QVQLVESGGGLVQAGGSLRLSCAASGFIFYYAMGWYRQAPGKERELVAAISSGSSTYADSVKGRFTISRDNAKNTVYLQMNSLKPEDTAVYYCATRYSSWYSNRDYDYWGQGTQVTVSS | low polyreactivity
10 | QVQLVESGGGLVQAGGSLRLSCAASGYIFYHYAMGWYRQAPGKERELVATISLGGGRTYYADSVKGRFTISRDNAKNTVYLQMNSLKPEDTAVYYCAAKQYGYYSDYYYWGQGTQVTVSS | high polyreactivity
11 | QVQLVESGGGLVQAGGSLRLSCAASGRTLRGNAMGWYRQAPGKEREFVAAITRRGGSTYYADSVKGRFTISRDNAKNTVYLQMNSLKPEDTAVYYCAAEGYDWIYLYYGLGYWGQGTQVTVSS | low polyreactivity
12 | QVQLVESGGGLVQAGGSLRLSCAASGSTFSTYAMGWDRQAPGKERELVAAIRWSGGSTYYADSVKGRFTISRDNAKNTVYLQMNSLKPEDTAVYNCNAGASYFLVISQSRRDYWGQGTEVTVSS | low polyreactivity
13 | QVQLVESGGGLVQAGGRLRLSCAASGSTFGWYARGWYRQAPGKERELVATISSGGSTYYADSVKGRFTISRDNAKNTVSLQMNSLKPEDTAVYYCAARIGTGVLPGRGANSHMDFWGHGTQVTVSS | low polyreactivity
14 | QVQLVQSGGGLVQAGGSLRLSCAASGLTNYRYAMGWNRQAPGQEREFVAGISASGGGSSYADSVKGRFTISRDNAKNTVYLQMNRLKPEDTAVYYCAATTTFFVWQGHNYCGQGTQVTVSS | low polyreactivity
15 | QVQLVESGGGLVQAGGSLRLSCAASGFTFYTYAMGWYRQAPGKERELVAAISGSGSRTYYADSVKGRFTISRDNAKNTVYLQMNSLKPEDTAVYYCNAGYGSGSLHREFNYWGQGTQVTVSS | low polyreactivity
16 | QVQLVESGGGLVQAGGSLRLSCAASGRIFWWYSMGWYRQAPVKERELVAAISTGSRTYYADSVKGRFTISRDNAKNTVFLQMNSLKPEDTAVYYCVADGLYSVSRSSIFEYWGQGTQVTVSS | low polyreactivity
17 | QVQLVESGGCLVQAGGSLRLSCAASGRTSVIYAMGWYRQAPGKERELVASIRRGGSTSYADSVKGRFTISRDNAKNTVYLQMNSLKPEDTAVYYCAADRYTWRKSYDYWGQGTQVTVSS | high polyreactivity
18 | QVQLVESGGGLVQAGGSLRLSCAASGFTLGGNAMGWYRQAPGKERELVAAITFSGGSTYYADSVKGRFTISRDNAKNIVYLQMNSLKPEDTAVYYCAKTHGYYYYYTYDYWGQGTQVTVSS | low polyreactivity
19 | QVQLVESGGGLVQAGGSLRLSCAASGRTFGYNAMGWYRQAPGKERELVAVIRSGGSTSYADSVKGRFTISRDNAKNTVYLQMNSLKPEDTAVYYCAATGLYNVTSPYSYKYDYWGQGTQVTVSS | low polyreactivity
20 | QVQLVESGGGLVQAGGSLRLSCAASGSIFVTNAMGWYRPAPGKERELVAAIRWSGDSTYYADSVKGRFTISRDNAKNTVFLQMNSLKPEDTAVYYCAAESFRYIRLNYKYGDYYWGQGTQVTVSS | high polyreactivity
21 | QVQLVESGRGLVQAGVSLRLSCAASGSTFGYYAMGWYRQAPGKERELVAAISYSGGSTYYADSVKGRFTISRDNAKNTVYLQMNSLKQEDTAVYYCAARFTRQMYYWGQGTQVNVSS | high polyreactivity
22 | QVQLEESGGGLVQAGGSLRLTCAASGRTFYNNAMGWYRQAPGKERQLVATISKSGGSTNYADSVKGRFTISRDNAKNTVYLQMNSLKPEDNAVYYCAADTSGGSWGRGRWKYGYWGQGTQVTVSS | high polyreactivity

Row | Sequence | polyreactivity (PSR sort gate)
23 | QVQLVESGGGLVQAGGSLRLSCAASGRIFRYYAIGWYRQAPGKERELVAVITSSGGSTYYADSVKGRFTISRDNAKNTVYLQMNSLKPEDTAVYYCAKDHRSYWGQGTQVTVSS | high polyreactivity
24 | QVQLVESGGGLVQAGGSLRLSCAASGSTFKRYTMGWYRQAPGKESELVAAISSSGGSTYYADSVKGRFTISRDNAKNTVYLQMNSQKPEDTAVYYCAKGYQRGRDYWGQGTQVTVSS | high polyreactivity
25 | QVQLVESGGGLVQAGGSLRLSCAASGRIFSQNTMGWYRQAPGKERELVATITTSDGSTSYADSVKGRFTISRDNAKNTVYLQMNSLKPEDTAVYYCNARLSKYEGYWVWQYDYWGQGTQVTVSS | low polyreactivity
26 | QVQLVESGGGLVQAGGSLRLSCAASGITFRGYAMGWYRQAPGKERELVAAISSGGRTNYADSVKGRFTISRDNAKNTVYLQMNSLKPEDTAVYYCAARYRREKAGYRWDIFYWGQGTQVTVSS | high polyreactivity
27 | QVQLVESGGGLVQAGGSLRLSCAASGRIFVTNAMGWYRQAPGKEREMVAAITRRGGRTYYADSVKGRFTISRDNAKNTVYLQMHSLKREDTAVYYCAAERYPEAGSPYGTAEMDYWGQGTQVTVSS | high polyreactivity
28 | QVQLVESGGGLVQAGGSLRLSCAASRRTLGKYVMGRYRQQPGKERELVPAIRSGTNTYYADSVKGRFTISRDNAKNTVYLQMNSLIPEDTAVYYCGAARYTKFDYWGQGTQLTVSS | high polyreactivity
29 | QVQLVESGGGVVQAGGSLRLSCAASGSIFFLYAMGWSRQATGKEREFVAAITGTADSTYYADSVKGRFTISRDDAKNTVYLQMNSLKPEDTAVYYCATDYWSSVKLDDYWGQGTQVTVSS | low polyreactivity
30 | QVQLVESGGGLVQAGGSLRLSCTASGSTFVAYAMGWYRQAPGKERELVAAITSSGGRTYYADSVKGRFTISRDNAKNTVYLQMNSLKPEDTAVYYCNVYPSRRRAVGESERYYWGQGTQVTVSS | high polyreactivity
31 | QVQLVESGGGLVQAGGSLRLSCAASGSTFPKYPMGWYRQSPGKERELVASISVTTGSTYYADSVKGRFTISRDNAKHTVYLQMNSLKPEDTAVYYCAKRTYSRKFRGAYNYWGLGTQVTVSS | high polyreactivity
32 | QVQLVESGGGLVQAGGSLRLSCAASGRTFRHNTMGWYRQAPGKEREFVAVITTSGGSTYYADSVKGRFTISRDNAKNTVYLQMNSMKPEDTAVYYCNAKYHLSRSTYYYWGQGTQVTVSS | high polyreactivity
33 | QVQLVESGGGLVQAGGILRLSCAASGRTFFVYAMGWYRPAPGTEWEGVAAISNTGGRTYYADSVKGRFTISRDYAKNTVYFQMNSLKPEDTAVYYCAAPYSGPYRSYEYYWGQGTHVTVSS | low polyreactivity
34 | HAQLQESGGGMVQAGGSLRRSCAASGSIILFSGMGWYRRARGKERELVASIGFGSITYYADRVKGRFTISRDNANNTVYLQMNSLKPEDTAVYYCAVQVQDESWLDYWGQGTQVTVSC | low polyreactivity
35 | QVQLVDSGGGLVQAGGSLRLSCAASGSTFWFYAMGWYRQAPGNERELVAVISNSGSTYYADSVKGRFRISRDNAKNTVYLQMNSLKPEDTAVYYCNKDGGGDSYWYDYWGQGTQVTVSS | low polyreactivity
36 | QVQHVESGGGLVQAGGSLRLSCAASGRIFSANAMGWYRQAPGKERELVAAISGSGGSTFYADSVKGRFTISRDNAKNTVYLQMNSLKPEDTAVYYCAARRYRSGYYSFYYWGQGTQVTVSS | high polyreactivity
37 | QVQLVESGGGLVQAGGSLRLSCAASGSIFYRYAMGWYRPAPGKERELVAAISSTGSTYYADSVKGRFTISRDNAKNTVYLQMNSLKPEDTAVYYCAARQGYRSYRRYDYWGQGTQVTVSS | high polyreactivity
38 | LVQLQESGGGLVQAGGSLRLSCAASGTISPGGYMGWYRQAPGKERELVASINVGGSTNYADSVKGRFTISRDNAKNTVYLQRNSLKPEDNAVYYCAVWGRNRLQLSYWGQGTQVTVSS | low polyreactivity
39 | QVQIVESWGGLVQAGGSLRLSCAASGSTIYTYPMGWYRQAPGKERELFAAISYRGGSTYYADSVKVRYSISRDNAKNTVYLQMKSLKPEDTAVYYCNVDGVVVGTKRGGYDYWGQGTQVTVSS | low polyreactivity
40 | QVQLVESGGGLVQAGGSLRLICAASGRIFPGYTMGWYRQAPGKEREFFAAISYSGGSTYADSVKGRFTISRDNAKNTVYLQMNSLKPEDTAVYYCAVVLQHWLDMYYWGQVTQVTVSS | low polyreactivity
41 | QVQLVESGGGLDQAGGSLRLSCAASGRTFKPYAMGWYRQAPGKERELVARISGSGGSTYYADSVKGRFSISRDNAKNTVYLQMNSLKPEDTAVYYCATTPYYWFDYWGQGTQVTVSS | low polyreactivity
42 | QVQLVESGGGLVQAGGSLRFSCSAYGSILPGYAMGWYRQAPGKERELVDAISYRGTSTYYADSVKGRFTISRDNAKNTVYLQMNSLKPEDTAVYYCAAGGSWFSYPPRMDYWGQGTQVTVSS | high polyreactivity
43 | QVQLVESGGGLVQAGGSLRLSCAASGLTFRWYAMGWYRRAPGKERELVAAISSGGSTNYADSVKGRFTISRDNAKNTVYLQMNSLKPEDTAVYYCNAKGRPWFKYDYWGQGTQVTVSS | high polyreactivity
